Patent US20200239529A1

Biological target: CXCR4 (human) (UniProt P61073)
Experiment: cell-based or functional assay

UniProt P61073, sequence (P61073 whole entry): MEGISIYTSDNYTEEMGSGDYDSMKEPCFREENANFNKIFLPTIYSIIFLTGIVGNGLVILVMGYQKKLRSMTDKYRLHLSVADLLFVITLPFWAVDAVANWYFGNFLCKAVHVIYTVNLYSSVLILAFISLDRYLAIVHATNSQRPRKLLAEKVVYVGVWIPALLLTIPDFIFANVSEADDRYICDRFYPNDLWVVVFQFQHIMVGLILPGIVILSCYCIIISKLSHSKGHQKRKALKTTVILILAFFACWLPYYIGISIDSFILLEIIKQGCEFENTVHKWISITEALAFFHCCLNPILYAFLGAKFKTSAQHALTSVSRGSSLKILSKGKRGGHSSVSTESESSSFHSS

Substance	IC50 of killing cultured HeLa cells [nM]
T22-DITOX-H6 (from UniProt P00587 26-411)	0.78
T22-PE24-H6	0.99
